We go through 83 variants from the RNAGym collection of RNA variant scans (doi:10.1073/pnas.2313332121).

Variants at the floor of the assay were thinned out.

The chains are these.
B1: TPR 5TU (parent)
chain: GGAUCUUCUCGAUCUAACAAAAAAGACAAAUCUGCCACAAAGCUUGAGAGCAUCUUCGGAUGCAGAGGCGGCAGCCUUCGGUGGCGCGAUAGCGCCAACGUUCUCAACUAUGACACGCAAAACGCGUGCUCCGUUGAAUGGAGUUUAUCAUG

Variants of B1 are the subject of the data set. Put plainly: polymerase ribozyme fitness, log enrichment relative to wild type (log ratio); higher = more active; in vitro selection for triplet polymerase activity. The method in brief: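 After PCR construction and transcription, each subunit's mutant library from a heterodimeric triplet polymerase ribozyme was annealed with a biotinylated primer, the partner subunit and triplets. Incubation was frozen, at −7 °C, and extended constructs were gel-excised, bound to streptavidin beads and amplified by RT-PCR, in one selection round done in triplicate. Fitness is the logarithm of a genotype's enrichment divided by that of the wild type, from inverse-variance-weighted replicate averages of Illumina-sequenced inputs and outputs. The base of the logarithm is 2, and genotypes needed ≥10 input reads and ≥1 read per output.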
U90A: the “polymerase ribozyme fitness (log ratio)” value was -4.07. Then U90C, with -2.87; and U90G, with not above -4.2.

As for A91C U109G G140U, the “polymerase ribozyme fitness (log ratio)” value was not above -4.2. Then G92C U146A, with -0.323.

A91C A150G: the “polymerase ribozyme fitness (log ratio)” value was not above -4.2. For G88A A110G the value was not above -4.2; for A89U G141C, -0.255; for A91U C118A A142C U144G, not above -4.2. Turning to A91G G94A, the “polymerase ribozyme fitness (log ratio)” value is -3.47. For G92A U104A A106C C108A the value was not above -4.2. For C93A A113U the value was -4.07; for G92A U101G C149U, -3.56; for G88U G117U A142C, not above -4.2. Then A89C G94C, with -1.57.

C93A G94A: the “polymerase ribozyme fitness (log ratio)” value is -2.93. Then A91U C108A C114A C129A U146A, with not above -4.2. For C93A C116G A142G, the “polymerase ribozyme fitness (log ratio)” value is -3.07. As to G88C C95U, the “polymerase ribozyme fitness (log ratio)” value was not above -4.2.

Take A91G: the “polymerase ribozyme fitness (log ratio)” value was -2.77. For A91C, the “polymerase ribozyme fitness (log ratio)” value was not above -4.2.

For A89C C96U, the “polymerase ribozyme fitness (log ratio)” value was -1.26. G92U C99U U144G: the “polymerase ribozyme fitness (log ratio)” value amounted to 0.0398. For C93A G136A, the “polymerase ribozyme fitness (log ratio)” value is -1.14. Then C93A G136U, with -4.17; and A91G A98U, with -3.95; and G92A C103U, with -2.02. For U90C A147U the value was -3.58. As for A89U C93U, the “polymerase ribozyme fitness (log ratio)” value was -1.6. With A89U C93G, the “polymerase ribozyme fitness (log ratio)” value is -3.68. Then A91G G100U A113U A120G C125A U139G, with not above -4.2; and A89U C99G G126A C132G, with -4.08; and G88U C96U G124C G136U, with not above -4.2. As for A89C C96A A115G, the “polymerase ribozyme fitness (log ratio)” value is -2.74. Then A91C A142C, with not above -4.2; and G92A G136C, with -3.83. Then G92U G112C, with -2.95; and C93A C103G, with -3.88; and G92U U148A, with -2.71. Then G92C, with -0.459; and G92A, with -2.51.

Take G92U: the “polymerase ribozyme fitness (log ratio)” value is -0.671. C93A U130A: the “polymerase ribozyme fitness (log ratio)” value was not above -4.2.

Turning to G92C C132U, the “polymerase ribozyme fitness (log ratio)” value is -1.6.

With U90C G94U G124A C125U, the “polymerase ribozyme fitness (log ratio)” value is -4. Then C93A C125U, with -2.47; and A89G C99G U102A C123G U135C U145G, with not above -4.2. Then G88U A106G, with -3.91.

In the case of A91G C96U A106G, the “polymerase ribozyme fitness (log ratio)” value was -2.5.

Take G92U C93A G133U G140A: the “polymerase ribozyme fitness (log ratio)” value was not above -4.2. In the case of G92A C95A C125G, the “polymerase ribozyme fitness (log ratio)” value was -3.82. For the variant G92C C105U, the “polymerase ribozyme fitness (log ratio)” value is -0.217. On to G92C C105G, for which the “polymerase ribozyme fitness (log ratio)” value was -2.39. For U90C C99G A138G the value was not above -4.2; for G92A U127G, -3.27; for G92A U127A, -3.83. For C93A A121C U148C the value was -2.37. Regarding A89U U127C G136C A137C, the “polymerase ribozyme fitness (log ratio)” value was -4.13. With G92U U104G C132U, the “polymerase ribozyme fitness (log ratio)” value is -2.5. Take A89G G92U: the “polymerase ribozyme fitness (log ratio)” value was -2.48. For the variant U90A G92C A142G, the “polymerase ribozyme fitness (log ratio)” value was not above -4.2. For A91G A106G the value was -1.93. For the variant A89U C93G A147U, the “polymerase ribozyme fitness (log ratio)” value is -2.7. Consider G92A A107G, for which the “polymerase ribozyme fitness (log ratio)” value was not above -4.2. Then A91C A97G U109C A142C, with not above -4.2; and U90C C99U, with not above -4.2. Then G92U U145A, with 0.602; and G88C C116U, with -3.99. Then G88U C149U, with not above -4.2. As for G88C A97U C103A G128C U134C U146C, the “polymerase ribozyme fitness (log ratio)” value was not above -4.2. As for G92C G141A, the “polymerase ribozyme fitness (log ratio)” value is -0.778.

With A91C A115C, the “polymerase ribozyme fitness (log ratio)” value was not above -4.2. As to A91U C99G, the “polymerase ribozyme fitness (log ratio)” value is not above -4.2.

As for C93A U134C, the “polymerase ribozyme fitness (log ratio)” value was -1.59. For C93A C96U the value was -3.3.

On to C93A C96A, for which the “polymerase ribozyme fitness (log ratio)” value was -3.78. Then G92U C116U, with 0.0946. For G92A C149U the value was -3.4.

In the case of U90C U104A, the “polymerase ribozyme fitness (log ratio)” value was -4.11. In the case of A91C A113G A138U, the “polymerase ribozyme fitness (log ratio)” value was not above -4.2. Then G92C U135G A142U, with -4.1. For A91U A115U C118A C131G A138G the value was not above -4.2; for G92U G94C A106G C123A U145C, -1.97.
